The text below walks through data of patent US20100016408A1 (NEW YORK UNIVERSITY, published 2010).

One assay addresses T1, Claspin (human, UniProt Q9HAW4 1-1339).
T1 construct: also called endogenous Claspin; wild type Claspin
Kind of assay: co-immunoprecipitation with anti-FLAG resin from HEK293T cells, immunoblot for endogenous Claspin (FIG. 2A). Here is the method:
To test whether APC/C^Cdh1 has a role in the degradation of Claspin during G0/G1, the expression of Cdh1 was reduced in T98G cells using a validated […] (SEQ ID NO:21). T98G cells were serum starved following knockdown of Cdh1, and the expression levels of Claspin were analyzed at various time points thereafter. FIGS. 2A-D are immunoblots showing Claspin is degraded in G0 and G1 via the APC/C^Cdh1 ubiquitin ligase. […] HEK293T cells were transfected with the indicated FLAG-tagged constructs or an empty vector (EV). Whole cell extracts (WCE) were immunoprecipitated (IP) with anti-FLAG resin, and immunocomplexes were probed with antibodies to the indicated proteins.
In general terms: Immunoblotting shows a protein as a band on a membrane.

The next assay deals with T2, FLAG-tagged Claspin(EEN) (human, UniProt Q9HAW4 1-1339, limits assumed).
T2 construct: also called mutant #2; not shown: FLAG tag
Kind of assay: co-immunoprecipitation with anti-HA antibody from HEK293T cells, immunoblot (FIG. 3F). On the procedure: (§1) HEK293T cells were cotransfected with HA-tagged Cdh1 and the indicated FLAG-tagged Claspin mutants. Whole cell extracts (WCE, bottom two panels, FIG. 3B) were immunoprecipitated (IP, upper two panels FIG. 3B) with an anti-HA antibody, and the indicated proteins were detected by immunoblotting. Finally, five unique, triple-point-mutations to Alanine across Claspin amino acids 79-102 were inserted, following the pattern of evolutionary conserved residues (FIG. 3E), and these mutants were assayed for binding to Cdh1. […] Thus, these studies identified the motif “EENxENL” (SEQ ID NO:29) located at residues 86-92 of Claspin (SEQ ID NO: 9), as the site mediating binding to Cdh1. Accordingly, in contrast to wild type Claspin, Claspin(ENL) was stable in HeLa cells progressing through G1 (FIG. 2C).

The next assay deals with T3, FLAG-tagged Claspin(ENL) (human, UniProt Q9HAW4 1-1339, limits assumed).
T3 construct: also called mutant #3; not shown: FLAG tag
Described as above. Here is the method:
as §1

T1 sequence (Q9HAW4 whole entry): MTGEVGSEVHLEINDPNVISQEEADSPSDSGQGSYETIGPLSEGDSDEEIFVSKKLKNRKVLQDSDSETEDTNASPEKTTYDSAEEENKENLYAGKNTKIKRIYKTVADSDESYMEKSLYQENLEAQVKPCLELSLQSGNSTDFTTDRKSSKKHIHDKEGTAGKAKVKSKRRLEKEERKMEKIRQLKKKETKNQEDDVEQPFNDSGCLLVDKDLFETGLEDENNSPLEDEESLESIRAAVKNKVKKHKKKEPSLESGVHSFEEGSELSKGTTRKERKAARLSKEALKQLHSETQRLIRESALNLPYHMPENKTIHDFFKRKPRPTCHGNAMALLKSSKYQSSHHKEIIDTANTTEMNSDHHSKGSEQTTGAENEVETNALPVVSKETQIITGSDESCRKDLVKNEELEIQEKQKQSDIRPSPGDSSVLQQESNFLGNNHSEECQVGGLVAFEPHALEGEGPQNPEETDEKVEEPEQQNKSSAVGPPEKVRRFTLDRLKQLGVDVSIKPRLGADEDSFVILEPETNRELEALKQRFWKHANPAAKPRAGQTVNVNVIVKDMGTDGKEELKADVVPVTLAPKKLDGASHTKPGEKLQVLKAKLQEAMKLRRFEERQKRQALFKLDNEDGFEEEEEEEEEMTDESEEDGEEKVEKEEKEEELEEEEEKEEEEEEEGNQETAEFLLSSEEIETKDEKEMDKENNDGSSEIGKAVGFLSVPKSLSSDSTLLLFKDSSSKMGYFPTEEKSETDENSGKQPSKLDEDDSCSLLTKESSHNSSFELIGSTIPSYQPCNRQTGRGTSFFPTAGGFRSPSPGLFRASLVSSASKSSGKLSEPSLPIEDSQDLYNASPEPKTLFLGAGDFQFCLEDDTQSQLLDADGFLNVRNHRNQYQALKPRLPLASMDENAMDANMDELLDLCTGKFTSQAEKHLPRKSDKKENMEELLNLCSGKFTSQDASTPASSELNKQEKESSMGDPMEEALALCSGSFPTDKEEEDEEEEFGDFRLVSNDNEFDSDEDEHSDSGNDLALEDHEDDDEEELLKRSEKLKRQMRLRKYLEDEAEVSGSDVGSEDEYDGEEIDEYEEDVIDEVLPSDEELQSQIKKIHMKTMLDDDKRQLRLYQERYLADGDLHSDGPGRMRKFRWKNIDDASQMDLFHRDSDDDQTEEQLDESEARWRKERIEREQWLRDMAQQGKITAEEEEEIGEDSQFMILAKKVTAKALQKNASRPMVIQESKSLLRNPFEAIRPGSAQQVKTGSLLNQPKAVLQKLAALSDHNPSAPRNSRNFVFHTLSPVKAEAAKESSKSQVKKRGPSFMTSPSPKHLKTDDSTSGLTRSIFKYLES
T3 sequence (Q9HAW4 other isoform, or with tags, fused parts or gaps limits assumed): as the sequence (Q9HAW4 whole entry) above, with E90A, N91A, L92A counted along it
T2 sequence (Q9HAW4 other isoform, or with tags, fused parts or gaps limits assumed): as the sequence (Q9HAW4 whole entry) above, with E86A, E87A, N88A counted along it

B1: FLAG-tagged Fbxw5 (other, UniProt Q969U6 1-566, looked up)
chain: MDEGGTPLLPDSLVYQIFLSLGPADVLAAGLVCRQWQAVSRDEFLWREQFYRYYQVARDVPRHPAAMSWYEEFQRLYDTVPCVEVQTLREHTDQVLHLSFSHSGYQFASCSKDCTVKIWSNDLTISLLHSADMRPYNWSYTQFSQFNKDDSLLLASGVFLGPHNSSSGEIAVISLDSFALLSRVRNKPYDVFGCWLTETSLISGNLHRIGDITSCSVLWLNNAFQDVESENVNVVKRLFKIQNLNASTVRTVMVADCSRFDSPDLLLEAGDPATSPCRIFDLGSDNEEVVAGPAPAHAKEGLRHFLDRVLEGRAQPQLSERMLETKVAELLAQGHTKPPERSATGAKSKYLIFTTGCLTYSPHQIGIKQILPHQMTTAGPVLGEGRGSDAFFDALDHVIDIHGHIIGMGLSPDNRYLYVNSRAWPNGAVVADPMQPPPIAEEIDLLVFDLKTMREVRRALRAHRAYTPNDECFFIFLDVSRDFVASGAEDRHGYIWDRHYNICLARLRHEDVVNSVVFSPQEQELLLTASDDATIKAWRSPRTMRVLQAPRPRPRTFFSWLASQRR
notes: not shown: FLAG tag
Take B1: the binding result with Claspin is on record as “no binding”.

B2: FLAG-tagged Fbxw4 (other, UniProt P57775 1-412, looked up)
chain: MAAAAGEEEEEEEAARESAARPAAGPALWRLPEELLLLICSYLDMRALGRLAQVCRWLRRFTSCDLLWRRIARASLNSGFTRLGTDLMTSVPVKERVKVSQNWRLGRCREGILLKWRCSQMPWMQLEDDSLYISQANFILAYQFRPDGASLNRRPLGVFAGHDEDVCHFVLANSHIVSAGGDGKIGIHKIHSTFTVKYSAHEQEVNCVDCKGGIIVSGSRDRTAKVWPLASGRLGQCLHTIQTEDRVWSIAISPLLSSFVTGTACCGHFSPLRIWDLNSGQLMTHLGSDFPPGAGVLDVMYESPFTLLSCGYDTYVRYWDLRTSVRKCVMEWEEPHDSTLYCLQTDGNHLLATGSSYYGVVRLWDRRQRACLHAFPLTSTPLSSPVYCLRLTTKHLYAALSYNLHVLDFQNP
notes: not shown: FLAG tag
Regarding B2, in the assay with Claspin, the binding result is “no binding”.

B3: HA-tagged Cdh1 (other)
chain: MDQDYERRLLRQIVIQNENTMPRVTEMRRTLTPASSPVSSPSKHGDRFIPSRAGANWSVNFHRINENEKSPSQNRKAKDATSDNGKDGLAYSALLKNELLGAGIEKVQDPQTEDRRLQPSTPEKKGLFTYSLSTKRSSPDDGNDVSPYSLSPVSNKSQKLLRSPRKPTRKISKIPFKVLDAPELQDDFYLNLVDWSSLNVLSVGLGTCVYLWSACTSQVTRLCDLSVEGDSVTSVGWSERGNLVAVGTHKGFVQIWDAAAGKKLSMLEGHTARVGALAWNAEQLSSGSRDRMILQRDIRTPPLQSERRLQGHRQEVCGLKWSTDHQLLASGGNDNKLLVWNHSSLSPVQQYTEHLAAVKAIAWSPHQHGLLASGGGTADRCIRFWNTLTGQPLQCIDTGSQVCNLAWSKHANELVSTHGYSQNQILVWKYPSLTQVAKLTGHSYRVLYLAMSPDGEAIVTGAGDETLRFWNVFSKTRSTKESVSVLNLFTRIR
notes: not shown: HA tag
On to B3, for which the binding result with FLAG-tagged Claspin(EEN) and with FLAG-tagged Claspin(ENL) was “no binding” throughout.
